From patent publication US20100099610A1 (published 2010)

Legend:
Assay in all cases: cell-based or functional assay
[1] = molecular target: wild type human growth hormone (human, UniProt P01241 27-217)
[2] = molecular target: hGHQ141N (human, UniProt P01241 27-217)
[3] = molecular target: hGHQ40N (human, UniProt P01241 27-217)
hGHQ40N, sequence (P01241 27-217 Q66N): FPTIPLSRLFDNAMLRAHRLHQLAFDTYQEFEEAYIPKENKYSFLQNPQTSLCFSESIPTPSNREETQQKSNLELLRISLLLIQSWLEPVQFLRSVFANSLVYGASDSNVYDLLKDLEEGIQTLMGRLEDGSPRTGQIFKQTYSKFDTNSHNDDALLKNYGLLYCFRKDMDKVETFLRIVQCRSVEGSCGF

wild type human growth hormone, sequence (P01241 27-217): as the sequence (P01241 27-217 Q66N) above, with N40Q counted along it
hGHQ141N, sequence (P01241 27-217 Q167N): as the sequence (P01241 27-217 Q66N) above, with N40Q, Q141N counted along it

| Binder | RS (relative selectivity against AlaPro-mTGase from S. mobaraensis) [1] | RSA Q40 [2] | RSA Q141 [3] |
| --- | --- | --- | --- |
| AlaPro-mTGase from S. mobaraensis (enzyme) APDSDDRVTPPAEPLDRMPDPYRPSYGRAETVVNNYIRKWQQVYSHRDGRKQQMTEEQREWLSYGCVGVTWVNSGQYPTNRLAFASFDEDRFKNELKNGRPRSGETRAEFEGRVAKESFDEEKGFQRAREVASVMNRALENAHDESAYLDNLKKELANGNDALRNEDARSPFYSALRNTPSFKERNGGNHDPSRMKAVIYSKHFWSGQDRSSSADKRKYGDPDAFRPAPGTGLVDMSRDRNIPRSPTSPGEGFVNFDYGWFGAQTEADADKTVWTHGNHYHAPNGSLGAMHVYESKFRNWSEGYSDFDRGAYVITFIPKSWNTAPDKVKQGWP | 1 |  |  |
| GlyPro-mTGase from S. ladakanum (enzyme) GPDSDERVTPPAEPLDRMPDPYRPSYGRAETIVNNYIRKWQQVYSHRDGRKQQMTEEQREWLSYGCVGVTWVNSGQYPTNRLAFAFFDEDKYKNELKNGRPRSGETRAEFEGRVAKDSFDEAKGFQRARDVASVMNKALENAHDEGAYLDNLKKELANGNDALRNEDARSPFYSALRNTPSFKDRNGGNHDPSKMKAVIYSKHFWSGQDRSGSSDKRKYGDPEAFRPDRGTGLVDMSRDRNIPRSPTSPGESFVNFDYGWFGAQTEADADKTVWTHGNHYHAPNGSLGAMHVYESKFRNWSDGYSDFDRGAYVVTFVPKSWNTAPDKVKQGWP | 1.8 |  |  |
| GlyPro-mTGase_Y62H_Y75N from S. ladakanum (enzyme) GPDSDERVTPPAEPLDRMPDPYRPSYGRAETIVNNYIRKWQQVYSHRDGRKQQMTEEQREWLSHGCVGVTWVNSGQNPTNRLAFAFFDEDKYKNELKNGRPRSGETRAEFEGRVAKDSFDEAKGFQRARDVASVMNKALENAHDEGAYLDNLKKELANGNDALRNEDARSPFYSALRNTPSFKDRNGGNHDPSKMKAVIYSKHFWSGQDRSGSSDKRKYGDPEAFRPDRGTGLVDMSRDRNIPRSPTSPGESFVNFDYGWFGAQTEADADKTVWTHGNHYHAPNGSLGAMHVYESKFRNWSDGYSDFDRGAYVVTFVPKSWNTAPDKVKQGWP | 4.6 |  |  |
| GlyPro-mTGase_Y75N from S. ladakanum (enzyme) GPDSDERVTPPAEPLDRMPDPYRPSYGRAETIVNNYIRKWQQVYSHRDGRKQQMTEEQREWLSYGCVGVTWVNSGQNPTNRLAFAFFDEDKYKNELKNGRPRSGETRAEFEGRVAKDSFDEAKGFQRARDVASVMNKALENAHDEGAYLDNLKKELANGNDALRNEDARSPFYSALRNTPSFKDRNGGNHDPSKMKAVIYSKHFWSGQDRSGSSDKRKYGDPEAFRPDRGTGLVDMSRDRNIPRSPTSPGESFVNFDYGWFGAQTEADADKTVWTHGNHYHAPNGSLGAMHVYESKFRNWSDGYSDFDRGAYVVTFVPKSWNTAPDKVKQGWP | 3.4 |  |  |
| GlyPro-mTGase_Y75F from S. ladakanum (enzyme) GPDSDERVTPPAEPLDRMPDPYRPSYGRAETIVNNYIRKWQQVYSHRDGRKQQMTEEQREWLSYGCVGVTWVNSGQFPTNRLAFAFFDEDKYKNELKNGRPRSGETRAEFEGRVAKDSFDEAKGFQRARDVASVMNKALENAHDEGAYLDNLKKELANGNDALRNEDARSPFYSALRNTPSFKDRNGGNHDPSKMKAVIYSKHFWSGQDRSGSSDKRKYGDPEAFRPDRGTGLVDMSRDRNIPRSPTSPGESFVNFDYGWFGAQTEADADKTVWTHGNHYHAPNGSLGAMHVYESKFRNWSDGYSDFDRGAYVVTFVPKSWNTAPDKVKQGWP | 5.1 |  |  |

Now from value to binder:

| RS (relative selectivity against AlaPro-mTGase from S. mobaraensis) [1] | RSA Q40 [2] | RSA Q141 [3] | Binder |
| --- | --- | --- | --- |
|  | 1.9 relative to wild type TGase | 3.59 relative to wild type TGase | S. ladakanum GlyPro-TGase mutant S250L (enzyme) GPDSDERVTPPAEPLDRMPDPYRPSYGRAETIVNNYIRKWQQVYSHRDGRKQQMTEEQREWLSYGCVGVTWVNSGQYPTNRLAFAFFDEDKYKNELKNGRPRSGETRAEFEGRVAKDSFDEAKGFQRARDVASVMNKALENAHDEGAYLDNLKKELANGNDALRNEDARSPFYSALRNTPSFKDRNGGNHDPSKMKAVIYSKHFWSGQDRSGSSDKRKYGDPEAFRPDRGTGLVDMSRDRNIPRSPTSPGELFVNFDYGWFGAQTEADADKTVWTHGNHYHAPNGSLGAMHVYESKFRNWSDGYSDFDRGAYVVTFVPKSWNTAPDKVKQGWP |
|  | 0.76 relative to wild type TGase | 1.04 relative to wild type TGase | S. ladakanum GlyPro-TGase mutant S250D (enzyme) GPDSDERVTPPAEPLDRMPDPYRPSYGRAETIVNNYIRKWQQVYSHRDGRKQQMTEEQREWLSYGCVGVTWVNSGQYPTNRLAFAFFDEDKYKNELKNGRPRSGETRAEFEGRVAKDSFDEAKGFQRARDVASVMNKALENAHDEGAYLDNLKKELANGNDALRNEDARSPFYSALRNTPSFKDRNGGNHDPSKMKAVIYSKHFWSGQDRSGSSDKRKYGDPEAFRPDRGTGLVDMSRDRNIPRSPTSPGEDFVNFDYGWFGAQTEADADKTVWTHGNHYHAPNGSLGAMHVYESKFRNWSDGYSDFDRGAYVVTFVPKSWNTAPDKVKQGWP |
|  | 3.02 relative to wild type TGase | 5.34 relative to wild type TGase | S. ladakanum GlyPro-TGase mutant S250C (enzyme) GPDSDERVTPPAEPLDRMPDPYRPSYGRAETIVNNYIRKWQQVYSHRDGRKQQMTEEQREWLSYGCVGVTWVNSGQYPTNRLAFAFFDEDKYKNELKNGRPRSGETRAEFEGRVAKDSFDEAKGFQRARDVASVMNKALENAHDEGAYLDNLKKELANGNDALRNEDARSPFYSALRNTPSFKDRNGGNHDPSKMKAVIYSKHFWSGQDRSGSSDKRKYGDPEAFRPDRGTGLVDMSRDRNIPRSPTSPGECFVNFDYGWFGAQTEADADKTVWTHGNHYHAPNGSLGAMHVYESKFRNWSDGYSDFDRGAYVVTFVPKSWNTAPDKVKQGWP |
|  | 1.4 relative to wild type TGase | 2.25 relative to wild type TGase | S. ladakanum GlyPro-TGase mutant S250H (enzyme) GPDSDERVTPPAEPLDRMPDPYRPSYGRAETIVNNYIRKWQQVYSHRDGRKQQMTEEQREWLSYGCVGVTWVNSGQYPTNRLAFAFFDEDKYKNELKNGRPRSGETRAEFEGRVAKDSFDEAKGFQRARDVASVMNKALENAHDEGAYLDNLKKELANGNDALRNEDARSPFYSALRNTPSFKDRNGGNHDPSKMKAVIYSKHFWSGQDRSGSSDKRKYGDPEAFRPDRGTGLVDMSRDRNIPRSPTSPGEHFVNFDYGWFGAQTEADADKTVWTHGNHYHAPNGSLGAMHVYESKFRNWSDGYSDFDRGAYVVTFVPKSWNTAPDKVKQGWP |
|  | 1.77 relative to wild type TGase | 2.42 relative to wild type TGase | S. ladakanum GlyPro-TGase mutant S250G (enzyme) GPDSDERVTPPAEPLDRMPDPYRPSYGRAETIVNNYIRKWQQVYSHRDGRKQQMTEEQREWLSYGCVGVTWVNSGQYPTNRLAFAFFDEDKYKNELKNGRPRSGETRAEFEGRVAKDSFDEAKGFQRARDVASVMNKALENAHDEGAYLDNLKKELANGNDALRNEDARSPFYSALRNTPSFKDRNGGNHDPSKMKAVIYSKHFWSGQDRSGSSDKRKYGDPEAFRPDRGTGLVDMSRDRNIPRSPTSPGEGFVNFDYGWFGAQTEADADKTVWTHGNHYHAPNGSLGAMHVYESKFRNWSDGYSDFDRGAYVVTFVPKSWNTAPDKVKQGWP |
|  | 1.85 relative to wild type TGase | 2.63 relative to wild type TGase | S. ladakanum GlyPro-TGase mutant S250F (enzyme) GPDSDERVTPPAEPLDRMPDPYRPSYGRAETIVNNYIRKWQQVYSHRDGRKQQMTEEQREWLSYGCVGVTWVNSGQYPTNRLAFAFFDEDKYKNELKNGRPRSGETRAEFEGRVAKDSFDEAKGFQRARDVASVMNKALENAHDEGAYLDNLKKELANGNDALRNEDARSPFYSALRNTPSFKDRNGGNHDPSKMKAVIYSKHFWSGQDRSGSSDKRKYGDPEAFRPDRGTGLVDMSRDRNIPRSPTSPGEFFVNFDYGWFGAQTEADADKTVWTHGNHYHAPNGSLGAMHVYESKFRNWSDGYSDFDRGAYVVTFVPKSWNTAPDKVKQGWP |
